Reference: US20060063917A1, “Selection of peptide ligands specific for baculovirus DNA-binding protein from the FliTrxTM random peptide display library” (Vista Biologicals Corporation, priority 2004, published 2006)
No end group written: not given here.

T1: His.Tag AcNPV DBP (Autographa californica nuclear polyhedrosis virus, UniProt P41430)
T1 construct: made in house; host or cells: E. coli BL21 (DE3)
T1 sequence (P41430 whole entry, looked up): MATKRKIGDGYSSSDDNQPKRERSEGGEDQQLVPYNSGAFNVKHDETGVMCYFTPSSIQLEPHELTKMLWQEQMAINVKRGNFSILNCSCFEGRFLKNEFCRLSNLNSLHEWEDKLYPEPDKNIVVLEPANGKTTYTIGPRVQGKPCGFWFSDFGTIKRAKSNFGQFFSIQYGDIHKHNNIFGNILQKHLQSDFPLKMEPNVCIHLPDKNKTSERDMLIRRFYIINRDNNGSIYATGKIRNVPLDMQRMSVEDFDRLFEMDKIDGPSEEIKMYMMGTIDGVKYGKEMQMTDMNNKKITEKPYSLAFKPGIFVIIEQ


Assays:
His.Tag AcNPV DBP [1] = molecular target: T1, His.Tag AcNPV DBP; test: ELISA for His.Tag AcNPV DBP screening using the FliTrx protein solution; assay type: binding, Autographa californica nucleopolyhedrovirus (AcNPV); conditions: wells coated with FliTrx protein solution of positive clones; 6 μg His.Tag AcNPV DBP added; mean of duplicate; mean O.D. of negative controls 0.14
Experimental: (§1) ELISA Protocols for His.Tag AcNPV DBP Screening
(§2) ELISA procedure was used for analysis of His.Tag AcNPV DBP as a target. The polystyrene microtitration plates (PolySorp™ Surface, Immuno™ Plate, Nunc) were used as the solid phase for the assay. All washes were performed four times with phosphate-buffered saline (PBS) containing 0.05% (V/V) Tween® 20 (PBS-T). The substrate solution for alkaline phosphatase (p-nitrophenyl phosphate, pNPP, 1 mg/ml, in 0.2 M Tris-HCl buffer, pH 7) was from Sigma, St. Louis, Mo. The reaction was stopped by the addition of 3 M NaOH (50 μl per well). The optical density at 405 nm (O.D.λ=405 nm) was measured in a microplate colorimeter (Molecular Devices, Thermo max Microplate Reader).
1. Using the FliTrx™ Protein Solution
Wells of the microtitration plates were coated with the FliTrx™ protein solutions obtained from induced culture cell of positive clones that contain the peptides recognized by His.Tag AcNPV DBP (50 μl per well). To account for plate binders, empty plates were used as negative controls. After incubation overnight at +4° C., the plates were washed, and the uncoated attachment sites on the plates were saturated by incubation for 1 hour at 37° C. with a solution of 2% nonfat dry milk in PBS-T: PBS-T-M (200 μl per well). The plates were then washed, and an aliquot of 100 μl (6 μg) of the purified His.Tag AcNPV DBP was added to both the target plate and the control plate. Plates were incubated for. 1 hour at 37° C. The plates were then washed, and 100 μl of a 1:1,000 dilution of mouse monoclonal Ig G1 antibody to penta-His™ (QIAGEN, Valencia, Calif.) in PBS-T-M were added. After being incubated again for 1 hour at 37° C., the plates were washed, and 100 μl of a 1:1,000 dilution of goat anti-mouse IgG conjugated to alkaline phosphatase (Bio-Rad Laboratories, Hercules, Calif.) were added. After being incubated again for 1 hour at 37° C., the plates were washed, and substrate solution (200 [l per well) was added. After incubation for 1 hour at 37° C., the reaction was stopped.

His.Tag AcNPV DBP [2] = molecular target: T1, His.Tag AcNPV DBP; test: ELISA for His.Tag AcNPV DBP screening using the biotinylated synthesized peptide ligand; assay type: binding, Autographa californica nucleopolyhedrovirus (AcNPV); conditions: wells coated with 2 μg His.Tag AcNPV DBP; 25 μg biotinylated peptide added; negative control (empty) plate gave 0.30
Experimental: as §1, §2
2. Using the Biotinylated Synthesized Peptide Ligand
Wells of the microtitration plates were coated with 50 μl (2 μg) of purified His.Tag AcNPV DBP. To account for plate binders, empty plates were used as negative controls. After incubation overnight at +4° C., the plates were washed, and the uncoated attachment sites on the plates were saturated by incubation for 1 hour at 37° C. with PBS-T-M (200 μl per well). The plates were then washed, and an aliquot of 100 μl (25 μg) of the biotinylated synthesized peptide ligand No. 4 (SEQ ID NO. 6) (Invitrogen, Carlsbad, Calif.) was added to both the target plate and the control plate. Plates were incubated for 1 hour at 37° C. […]

[3] = molecular target: recombinant His.Tag AcNPV DBP (Autographa californica nucleopolyhedrovirus DNA-binding protein) (Autographa californica nucleopolyhedrovirus (AcNPV)); test: ELISA: FliTrx protein solution coated, 6 ug His.Tag AcNPV DBP added, detected with anti-penta-His and goat anti-mouse IgG-AP; mean of duplicate; negative controls (empty plates) 0.14
[4] = molecular target: recombinant His.Tag AcNPV DBP (Autographa californica nucleopolyhedrovirus DNA-binding protein) (Autographa californica nucleopolyhedrovirus (AcNPV)); test: ELISA: 2 ug His.Tag AcNPV DBP coated, 25 ug biotinylated peptide added, detected with anti-biotin BN-34-AP; empty negative control plate 0.30

Molecule | ELISA (O.D. λ = 405 nm), affinity for His.Tag AcNPV DBP (His.Tag AcNPV DBP [1]) | ELISA (O.D. λ = 405 nm) (O.D. λ = 405 nm) [3] | other results
ADYGKGLRRAMG (baculovirus) [Peptide ligand No. 3, FliTrx selected dodecapeptide ligand recognized by His.Tag AcNPV DBP] | 1.11 | – | –
AGRKGERGSVLQ (baculovirus) [Peptide ligand No. 1, FliTrx selected dodecapeptide ligand recognized by His.Tag AcNPV DBP] | 1.21 | – | –
AMLRAACVVRSM (baculovirus) [Peptide ligand No. 2, FliTrx selected dodecapeptide ligand recognized by His.Tag AcNPV DBP] | 0.56 | – | –
GGGGRRSGGACP (baculovirus) [Peptide ligand No. 4, FliTrx selected dodecapeptide ligand recognized by His.Tag AcNPV DBP] | 1.13 | – | –
PAQAQTRRRRPR (baculovirus) [Peptide ligand No. 5, FliTrx selected dodecapeptide ligand recognized by His.Tag AcNPV DBP] | 1.35 | – | –
biotinylated synthesized peptide ligand No. 4: biotinylated synthesized peptide ligand No. 4 (SEQ ID NO. 6), GGGGRRSGGACP (also: biotinylated) | – | – | mean O.D. value, target plate (His.Tag AcNPV DBP [2]): about 4.0
ADYGKGLRRAMG (peptide, part only; not given: FliTrx scaffold, part only, also: inserted in thioredoxin active-site loop of FliTrx fusion protein) [FliTrx selected peptide ligand No. 3 (…), as FliTrx protein solution] | – | 1.11 | –
GGGGRRSGGACP (peptide, part only; not given: FliTrx scaffold, part only, also: inserted in thioredoxin active-site loop of FliTrx fusion protein) [FliTrx selected peptide ligand No. 4 (…), as FliTrx protein solution] | – | 1.13 | –
GGGGRRSGGACP (also: biotinylated, position not given here) [biotinylated synthesized peptide ligand No. 4 (SEQ ID NO. 6)] | – | – | mean O.D. (405 nm) [4]: 4 O.D.
AGRKGERGSVLQ (peptide, part only; not given: FliTrx scaffold, part only, also: inserted in thioredoxin active-site loop of FliTrx fusion protein) [FliTrx selected peptide ligand No. 1 (…), as FliTrx protein solution] | – | 1.21 | –
PAQAQTRRRRPR (peptide, part only; not given: FliTrx scaffold, part only, also: inserted in thioredoxin active-site loop of FliTrx fusion protein) [FliTrx selected peptide ligand No. 5 (…), as FliTrx protein solution] | – | 1.35 | –
AMLRAACVVRSM (peptide, part only; not given: FliTrx scaffold, part only, also: inserted in thioredoxin active-site loop of FliTrx fusion protein) [FliTrx selected peptide ligand No. 2 (…), as FliTrx protein solution] | – | 0.56 | –
